This note sets out measurements from patent US7402570 (Johns Hopkins, dated 2008).

For the test, the target named is T1, human p53 protein, full length (human, UniProt P04637 1-393).
T1 construct: range 1-393; it is not clear whether that entry is whole p53 or the peptide, so it is not used here
Put plainly: yeast two-hybrid, lexA-responsive β-galactosidase reporter; (+) colonies turned blue following 24 hours (strain 4).

T1 sequence (P04637 whole entry): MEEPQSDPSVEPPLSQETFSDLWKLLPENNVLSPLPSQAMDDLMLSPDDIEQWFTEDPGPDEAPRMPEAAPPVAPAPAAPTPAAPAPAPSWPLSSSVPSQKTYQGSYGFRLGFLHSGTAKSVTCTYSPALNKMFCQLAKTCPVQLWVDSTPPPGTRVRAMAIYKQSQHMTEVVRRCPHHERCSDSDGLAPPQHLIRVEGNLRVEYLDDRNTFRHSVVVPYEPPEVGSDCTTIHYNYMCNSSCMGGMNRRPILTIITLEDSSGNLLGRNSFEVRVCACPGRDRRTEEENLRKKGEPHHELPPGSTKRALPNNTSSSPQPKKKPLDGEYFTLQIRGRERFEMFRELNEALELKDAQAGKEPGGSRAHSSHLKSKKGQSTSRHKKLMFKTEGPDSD

B1: lexA-MDM2 (1-118) (other, not shown: small tags and cut ends)
chain: MCNTNMSVPTDGAVTTSQIPASEQETLVRPKPLLLKLLKSVGAQKDTYTMKEVLFYLGQYIMTKRLYDEKQQHIVYCSNDLLGDLFGVPSFSVKEHRKIYTMIYRNLVVVNQQESSDS
notes: Genetically engineered clone, expressed in yeast; also called MDM2 codons 1 to 118 fused to lexA
Turning to B1, the binding result is “binds”.
